Test results reported in US20200407445A1 (ITEOS THERAPEUTICS, published 2020).
One block for each binder: values may come before it.

Tests used:
[1] = target: T1, human TIGIT expressed on cells (human, UniProt Q495A1 22-244); assay: cell-based or functional assay
T1 sequence (looked up): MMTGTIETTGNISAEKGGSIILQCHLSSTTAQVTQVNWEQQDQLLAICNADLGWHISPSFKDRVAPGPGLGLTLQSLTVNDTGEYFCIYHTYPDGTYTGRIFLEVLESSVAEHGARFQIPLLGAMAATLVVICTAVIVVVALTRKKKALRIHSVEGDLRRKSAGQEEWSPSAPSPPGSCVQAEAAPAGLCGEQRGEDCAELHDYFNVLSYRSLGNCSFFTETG

[2] = target: T1, human TIGIT expressed on cells; assay: cell-based or functional assay; remark: listed apart in the source
[3] = target: T1, human TIGIT expressed on cells; assay: flow cytometry on Jurkat-hTIGIT
Experimental: Antibodies were incubated with the cells for 20 min at 4° C. in FACS buffer. […] Fluorescence intensity was analysed using LSR BD Fortessa and cell binding was recorded as the median fluorescence intensity of PE in cells expressing TIGIT at their surface.
The half-maximal concentration of binding (EC50) to Jurkat-hTIGIT was calculated using a four-variable curve-fit equation in Prism.

[4] = target: T1, human TIGIT expressed on cells; assay: flow cytometry, primary CD8+ T cells of healthy human PBMC, MFI
Experimental: Isolated human PBMCs from healthy volunteers were analysed for binding by antagonist anti-TIGIT antibodies. Cells were distributed at 1×10⁵ cells per well. Cells were incubated with anti-CD16 (Clone 3G8, BioLegend 302002), CD32 (Clone FLI8.26, BD Bioscience 557333) and CD64 (BD Bioscience 555525) at room temperature for 10 min, and the indicated anti-human TIGIT antibody clones were directly added at a final concentration of 8; 4; 2; 1; 0.5; 0.25; 0.125; 0.062; 0.031; 0.016; 8×10⁻³ and 4×10⁻³ nM in FACS buffer and incubated for 20 min at 4° C. […] Then, cells were washed and incubated with the following antibodies and LVD mix: anti-CD4-PercP-Cy5.5 (clone A161A1, BioLegend 357414); anti-CD8-BV510 (clone SK1, BD Bioscience 563919) and LVD efluor 660 (eBioscience 65-0864-18).
The EC50 values for binding to CD8+ human primary T cells were calculated using the MFI signal on living TIGIT+CD8+ T cells.

[5] = target: T1, human TIGIT expressed on cells; assay: flow cytometry, primary CD8+ T cells of cancer patients' PBMC, MFI
Experimental: Cells were distributed at 1×10^5 cells per well. […] Then, cells were washed and incubated with the following antibodies and life viability dye (LVD) mix: anti-CD4-PercP-Cy5.5 (clone A161A1, BioLegend 357414); anti-CD8-BV510 (clone SK1, BD Bioscience 563919) and LVD efluor 520 (eBioscience 65-0867-14). Cells were washed and fixed and surface staining was quantified using BD LSR Fortessa. Flow cytometry data was analysed using FlowJo V10.1. TIGIT MFI on gated LVD-TIGIT+CD8+ cells was used to calculate EC50 values.

[6] = target: T1, human TIGIT expressed on cells; assay: flow cytometry, competition with CD155-His (15 ug/ml) on Jurkat-hTIGIT
[7] = target: T2, recombinant human TIGIT protein (construct not stated) (human, UniProt Q495A1 22-141, limits assumed); assay: Biacore T200, IgG captured by anti-human Fc, antigen in solution, 1:1 kinetic model
T2 construct: also called hTIGIT (Creative Biomart); recombinant TIGIT protein
T2 sequence (looked up): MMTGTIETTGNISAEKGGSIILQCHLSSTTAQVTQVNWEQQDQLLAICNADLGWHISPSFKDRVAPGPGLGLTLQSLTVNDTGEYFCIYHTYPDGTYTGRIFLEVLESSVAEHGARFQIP
Experimental: Biosensor analysis was conducted at 25° C. in a HBS-EP buffer system (10 mM HEPES pH 7.3, 150 mM NaCl, 3 mM EDTA, 0.05% Tween20) using Biacore T200 technology, CMS sensor chip (run at Novalix, France). The sample hotel was maintained at 8° C. Goat anti-human IgG capture antibody (Fcγ fragment specific, Jackson ImmunoResearch Laboratories) was immobilized (10000 RU) to both flow cells of the sensor chip using standard amine coupling chemistry. This surface type provided a format for reproducibly capturing fresh analysis antibody after each regeneration step. Flow cell 2 was used to analyse captured antibody while flow cell 1 was used as a reference flow cell. […] Two blank (buffer) injections also were run and used to assess and subtract system artefacts. The association (300 s) and dissociation (600 s) phases for all antigen concentrations were performed at a flow rate of 30 uL/min. The surface was regenerated with three sequential injections (15 s, 15 s and 60 s) of 10 mM glycine-HCl, pH 1.5. The obtained sensorgrams were fitted globally to a 1:1 model (assuming the same kinetic values for all applied concentrations).

Human TIGIT-His = target: T3, Human TIGIT-His (human, UniProt Q495A1 22-141, biotinylated in the ForteBio Fab assay); assay: ForteBio BLI, Fab KD, monovalent
T3 construct: bought (Creative Biomart); also called Biotinylated Human TIGIT HIS; TIGIT-His monomer; not shown: His tag
T3 sequence (looked up): T2 sequence (looked up)

Mouse TIGIT-Fc = target: T4, Mouse TIGIT-Fc (mouse, UniProt P86176 29-148, limits assumed); assay: ForteBio BLI, Fab KD, monovalent
T4 construct: not shown: Fc part
T4 sequence (looked up): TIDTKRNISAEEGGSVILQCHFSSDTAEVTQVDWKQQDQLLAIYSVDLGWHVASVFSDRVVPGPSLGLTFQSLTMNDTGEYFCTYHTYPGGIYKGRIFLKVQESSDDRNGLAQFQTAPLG

Cyno TIGIT-Fc = target: T5, Cyno TIGIT-Fc (cynomolgus, UniProt A0A7N9I9V4 89-209); assay: ForteBio BLI, Fab KD, monovalent
T5 construct: not shown: Fc part
T5 sequence (A0A7N9I9V4 entry or part of it): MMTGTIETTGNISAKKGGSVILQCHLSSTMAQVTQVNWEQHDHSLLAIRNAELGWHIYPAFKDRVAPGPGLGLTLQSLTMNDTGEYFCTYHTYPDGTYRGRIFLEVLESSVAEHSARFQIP

EC50 (nM), luciferase, Jurkat-hTIGIT [1]: 5.3 nM | Fold change of EC50 over EC50 of best clone (31282_up) [1]: 1.6 fold | Induction over Isotype control (fold change), luciferase, Jurkat-hTIGIT + CD155 aAPC/CHO-K1 [1]: 6.7 fold | EC50 (nM), IFNg, human primary CD8+ T cells [2]: 0.3 nM | Fold change of EC50 over EC50 of best clone (31282_wu) [2]: 2.3 fold | Induction over isotype control (fold change), IFNg, human primary CD8+ T cells + CD155 aAPC/CHO-K1 [2]: 1.6 fold | EC50 [3]: 0.13 nM | Fold change of EC50 over EC50 of best clone (31282_wu) [3]: 1.2 fold | EC50 [4]: 0.39 nM | Fold change of EC50 over EC50 of best clone (31282_wu) [4]: 2 fold | EC50 [5]: 0.18 nM | Fold change of EC50 over EC50 of best clone (31282) [5]: 1.5 fold | Fold change of IC50 over IC50 of best clone (31282_up) [6]: 1.7 fold | IC50 [6]: 0.07 nM | Kd [7]: 0.067 nM | koff [7]: 0.000209 s⁻¹
B1: 31C6 (MEB125.31C6.A1.205 VH4/VL1; comparative anti-TIGIT antibody, human IgG1) (antibody, V domains shown)
VH: EVQLVQSGAEVKKPGASVKVSCKASGYTFSSYVMHWVRQAPGQGLEWIGYIDPYNDGAKYAQKFQGRVTLTSDKSTSTVYMELSSLRSEDTAVYYCARGGPYGWYFDVWGQGTTVTVSS
VL: DIQMTQSPSSLSASVGDRVTITCRASEHIYSYLSWYQQKPGKAPKLLIYNAKTLAEGVPSRFSGSGSGTDFTLTISSLQPEDFATYYCQHHFGSPLTFGQGTRLEIK
notes: from WO2016/028656; made in HEK cells as human IgG1; also called 3106 (as the text prints it)

Kd (Human TIGIT-His): 40.6 nM | Kd (Mouse TIGIT-Fc): 26.7 nM | binding result (Cyno TIGIT-Fc): no binding
B2: Fab of anti-TIGIT clone 26493 (Fab, V domains shown)
VH: EVQLVESGGGLVQPGRSLRLSCAASGFTFGDYAMHWVRQAPGKGLEWVSGITWNSGSIGYADSVKGRFTISRDNAKNSLYLQMNSLRAEDTALYYCAKPVPKSRGLDVWGQGTMVTVSS
VL: DIQLTQSPSSVSASVGDRVTITCRASQGISSWLAWYQQKPGKAPKLLIYGASSLQSGVPSRFSGSGSGTDFTLTISSLQPEDFATYYCQQAFYLPWTFGGGTKVEIK

EC50 [3]: 0.17 nM | Fold change of EC50 over EC50 of best clone (31282_wu) [3]: 1.6 fold | EC50 [4]: 0.38 nM | Fold change of EC50 over EC50 of best clone (31282_wu) [4]: 2 fold | EC50 [5]: 0.33 nM | Fold change of EC50 over EC50 of best clone (31282) [5]: 2.7 fold | Fold change of IC50 over IC50 of best clone (31282_up) [6]: 1.6 fold | IC50 [6]: 0.06 nM | Kd [7]: 2.49 nM | koff [7]: 0.0131 s⁻¹
B3: TIG1 (comparative anti-TIGIT antibody, human IgG1) (antibody, V domains shown)
VH: DVQLVESGGGLVQPGGSRKLSCAASGFTFSNFGMHWVRQAPEKGLEWVAFISSGSSSIYYADTVKGRFTISRDNPKNTLFLQMTSLRSEDTAMYYCARMRLDYYAMDYWGQGTSVTVSS
VL: DVQITQSPSYLAASPGETITINCRASKSISKYLAWYQEKPGKTNKLLIYSGSTLQSGIPSRFSGSGSGTDFTLTISSLEPEDFAMYYCQQHNEYPWTFGGGTKLEIK
notes: from WO2017/152088; made in HEK cells as human IgG1

EC50 (nM), luciferase, Jurkat-hTIGIT [1]: 5.2 nM | Fold change of EC50 over EC50 of best clone (31282_up) [1]: 1.6 fold | Induction over Isotype control (fold change), luciferase, Jurkat-hTIGIT + CD155 aAPC/CHO-K1 [1]: 5.3 fold | EC50 (nM), IFNg, human primary CD8+ T cells [2]: 0.41 nM | Fold change of EC50 over EC50 of best clone (31282_wu) [2]: 3.1 fold | Induction over isotype control (fold change), IFNg, human primary CD8+ T cells + CD155 aAPC/CHO-K1 [2]: 1.5 fold | EC50 [3]: 0.32 nM | Fold change of EC50 over EC50 of best clone (31282_wu) [3]: 3 fold | EC50 [4]: 1.17 nM | Fold change of EC50 over EC50 of best clone (31282_wu) [4]: 6.1 fold | EC50 [5]: 0.37 nM | Fold change of EC50 over EC50 of best clone (31282) [5]: 3.1 fold | Fold change of IC50 over IC50 of best clone (31282_up) [6]: 2.2 fold | IC50 [6]: 0.09 nM | Kd [7]: 0.071 nM | koff [7]: 0.000178 s⁻¹
B4: 22G2 (comparative anti-TIGIT antibody, human IgG1) (antibody, V domains shown)
VH: QVHLQESGPGLVKPSETLSLTCTVSGGSVSSGIYYWSWIRQPPGKGLEWIGYIYYSGSTNYNPSLKSRVTISVDTSKNQFSLKLSSVTAADTAVYYCARDYYVSGNYYNVDYYFFGVDVWGQGTTVTVSS
VL: EIVLTQSPATLSLSPGERATLSCRASQSVSSYLAWYQQKPGQAPRLLIYDASNRATGIPARFSGSGSGTDFTLTISSLEPEDFAVYYCQQRSNWPPLFTFGPGTKVDIK
notes: from WO2016/106302; made in HEK cells as human IgG1
